The values that follow come from PMC2831474 (Archives of biochemistry and biophysics, 2010).

The assay deals with preformed F-actin (chicken pectoral muscle skeletal actin polymerized with 0.1 M KCl) (chicken, UniProt P68139 1-377). The experiment in a line: co-sedimentation.

B1: N-acetylated striated muscle long α-tropomyosin (stTM) (natural protein)
chain: not shown
modifications: N-acetylated
Take B1: the “stoichiometry N” value was 0.25 ± 0.03 tropomyosin/actin molar ratio.
